Results as given in the DeepSol protein solubility set.

Experiment: soluble on expression in E. coli; label from the status in PepcDB or PDB records

Sequence | soluble on expression in E. coli
MSAAPGTISPPARELKTSAICGYLHRIEVRSIGLITRRRYWFALCDSTPYLYWYKDSDDIKCIGRVSLSGAAFTYDPREKGRFEIHSNNEVIALECSSDKQRNEWMKALQSTRKRSWKATKSKSDSSLDISSLTGRNSSSVLEECSSPSPVPPPRSPKPKKRTQFLTEEETDAETSSDVPHSSEETAEVVEDTDNTKIPAEGSATEWYLNPNGQLNERSLQMPKTIESPETVLKRLADQSIEAPFRAIRRNLSTWSRSRQNTSDEPVVGSRKGTVSSVDLTPEEKVIELSDKVSSLEEVVDSLRAALLLAQRNNEALQKIEDMGDNKEEMREYILEKERQVTELHISNSMNARRVRDLEDQNVRLEDTINDLQQSVEAFRESLRTKEELILRMCEEENREDLLGSISERSSNIPADANGLVSDVEVPEGILVDVSSVDCEEATRKVLDEENVRDIGELQDLVEGYRTQNQFLNAEIVQLHAITQSLEDREKKLIRQNFDLEACYYQLKSRYLMVLNHFKSPTKPGKIMEPGVLKELLEESARTPRESQQNLTDQLGFYKKDDFSESDDLLDTATFYMKKAGDVVEATKLEQSEEYMKWLQSWDAFLVNNTVSRQTAIMSSPDLKTLIRTGVPPAYRGRVWKIIVTHWVKDKQAELGNGYYQSMLRKAGTKKQDGSYDAAIKQIDLDLARTLPTNKLFDEPDSANIEKLRNVLYAFRYHNSHVGYCQGLNRLAAIALLNLDEQDSFWFLVACVEHLQPEGYYTSSLIGAVADQKVLRDLVAEKLPKLAAHLRALEVDLSLFALSWFLTCFVDVLPHSIYLTIFDAFLYEGNKVLFRFALALFKICEPHVLQCKTIGTVHQCLSKAQEHIIDFKSLAQVAFNELNPFPQKTIETKRQLYLTQLKDTGHCM | not soluble
MESVTRIKVRYAETDQMGVVHHSVYAVYLEAARVDFLERAGLPYHRVEARGVFFPVVELGLTFRAPARFGEVVEVRTRLAELSSRALLFRYRVEREGVLLAEGFTRHLCQVGERAARIPEDIYRALSVLHLK | soluble
VVNKKIAYLGDEKPITIWTSLDNVTVIQLEKDETISYITTGFNKGWSIVPNSNHIFIQPKSVKSNLMFEKEAVNFALMTRDYQEFLKTKKLIVDAPDPKELEEQKKALEKEKEAKEQAQKAQKDKREKRKEERAKNRANLENLTNAMSNPQNLSNNKNLSEFIKQQRENELDQMERLEDMQEQAQANALKQIEELNKKQAEETIKQRAKDKINIKTDKPQKSPEDNSIELSPSDSAWRTNLVVRTNKALYQFILRIAQKDNFASAYLTVKLEYPQRHEVSSVIEEELKKREEAKRQKELIKQENLNTTAYINRVMMASNEQIINKEKIREEKQKIILDQAKALETQYVHNALKRNPVPRNYNYYQAPEKRSKHIMPSEIFDDGTFTYFGFKNITLQPAIFVVQPDGKLSMTDAAIDPNMTNSGLRWYRVNEIAEKFKLIKDKALVTVINKG | not soluble
MAHHHHHHMGLEDIDVDDPPLTTSATPQTQKQCSSTLPNPPVTNVVKGASAPVDLVDLFGDLNVSTATPVVVTAATVGAATNSKNQAHYAGNTADDDFEWVTAKPSVAPPLAPKSYQGNAGTSNDPLDSFFSQAVPTPAATETAKPPDSSNDLFDFSEPVERVKYTNENTLLEAFANQGKANQGGGSKGPTLADLSKGSSDNVVKARLLKLMNYYDVLGVTPDATEAVIRQRFKKKALELHPDRVGRDQTPEEVELFKVMTKAHEVLTDPEERAKYDAQLLGGVPSGSPDSDWFFPPS | soluble
MVHDSALPFDALPMPPQGREGFEECPYLDSQWVADTNGQRMTGQGVDTRFDTPACVFWSYPEAPQATVMVRHMPSEEEAIRVVDWAAPIDTTEPAEEPDGWSGGRAGHEEGAVYAVQKGPVAVVVWSNQQQSLKAELMAKEAIARLGL | soluble
MSLIIYGYCRVSTKNQTDNNSLYQQQQEILNKYNDAKIIKETYTGTTTNRPKFEKIISSLKKGDLLVATKLDRLARSTSEGIQLIEGLFAKEVSVHILNIGLLENTSMGKFFLTTLLAVAELERNMIIERTQLGKEFAKKKKDFKDGRPKKYSNQQIQYALGLLNSKPYREVVKMTGISKSTLIRAKKSIEGHHHHHH | soluble
MCSHYQALKDQERMRKYFAAHPSAEVPADMWPRYMGAFIRRPLEWDSGDEAVPEREAATGRWGMIPPGTRPEKLAEASKKNTSNARSETAHQLWTFRNAWAKAQHCIIPADAIYEPDWRSGKAVPTRFTRADGAPLGIAGLWDRYRNAAGEWIDSYTMLTINADDDPLFRDYHQAGKEKRMVVILPDGAYGDWLTAPATDTRDFLLPYPADRLVAAAVKLEHHHHHH | soluble
MDIPVFTMVGEWKCKEGEWKFEPKEGIFGRCVRVQETMTYTDFVRTLREAFSLKSTEINPIISYWMLGEMSVLIDTKHPPVYIDSQMGLETFFFGSWWVSFSQLVRLFQ | not soluble
MIFSVRGEVLEVALDHAVIEAAGIGYRVNATPSALATLNQGSQARLVTAMVVREDSMTLYGFSDAENRDLFLALLSVSGVGPRLAMATLAVHDAAALRQALADSDVASLTRVPGIGRRGAERIVLELADKVGPVGASGLTVGTAADGNAVRGSVVEALVGLGFAAKQAEEATDQVLDGELGKDGAVATSSALRAALSLLGKTR | soluble
MGSDKIHHHHHHMSKAMISRENYLQQLIQFKDTDFIKVISGVRRSGKSVLLMQYRDYLQQQGIASENILYLNFESFEYQWVKDAQDFQQLIQEKMPSSQEKIYFLIDEIQFVEGWQKIVNALRVSFNTDIVITGSNANLLSGELATLLSGRYVEIKIYPLSFKEFLHAKNVDSQSRLVDKLYSEYEKYGGFPSVVMADEPLKETILSGIFDSIVLNDIAHRAGVKDTHILKSVILFLADNVGQLVNPSKISNTLTSERVPTSNHTISKYLDLLENAFLFYKAKQYDIRGKGYLKTNAKYFIVDNGLRRHAIGKKGANYANRLENIVFIELLRRGYSVDVGKLDSKEIDFIARKADEILYVQVAFEIPENTHETDNLLHIKDNYKKILITGKYYEQTEIDGIEVIYVVDWLLQ | not soluble
MDMNSFSPMMPTSPLSMINQIKFEDEPDLKDLFITVDEPESHVTTIETFITYRIITKTTRGEFDSSEFEVRRRYQDFLWLKGKLEEAHPTLIIPPLPEKFIVKGMVERFNDDFIETRRKALHKFLNRIADHPTLTFNEDFKIFLTAQAWELSSHKKQGPGLLSRMGQTVRAVASSMRGVKNRPEEFMEMNNFIELFSQRINLIDKISQRIYKEEREYFDEMKEYGPIHILWSASEEDLVDTLKDVASCIDRCCKATEKRMSGLSEALLPVVHEYVLYSEMLMGVMKRRDQIQAELDSKVEVLTYKKADTDLLPEEIGKLEDKVECANNALKADWERWKQNMQNDIKLAFTDMAEENIHYYEQCLATWESFLTSQTNLHLEEASEDKP | soluble
MAVSLVKGGNVSLTKEAPTMNIAVVGLGWDARVTDGSEFDLDASVFMVGENGKVLSDQHFIFFNNKVSPCGSVVHQGDNRTGAGDGDDEQIKIDLKKVPADVKKIIFSVTIYDAEARKQNFGMVSNSFMRVVNEDNSAEIARFDLSEDASTETAMIFGELYRNNDEWKFKAVGQGFAGGLSALASQHGVSV | not soluble
MGSDKIHHHHHHMNVENQSLSDIEIILSHRYDNGADYWTTPDKRLIKGSPFSTLDSVLYLLELGVNPDDTLLKECADLIFSTWREDGRFKLYPNGGIYPCHTANAANVLCHMGYASDIRMQKTFQHFLDTQYTDGGWRCNKFSFGRGPETEYSNPLPTLNILNAFRFSNYLNKESKLDKAVDFLLDHWTIKKPIGPCHYGIGTLFMQVEYPFRNYNLFLYVYVLSFYSRAKKDKRFLEALKILESKMIGNKIVVERVVPKLSKLSFCKKGESSEIATTHYYEILKNLDK | not soluble
MGHHHHHHSHMHSLATAAPVPTTLAQVDREKIYQWINELSSPETRENALLELSKKRESVPDLAPMLWHSFGTIAALLQEIVNIYPSINPPTLTAHQSNRVCNALALLQCVASHPETRSAFLAAHIPLFLYPFLHTVSKTRPFEYLRLTSLGVTGALVKTDEQEVINFLLTTEIIPLCLRIMESGSELSKTVATFILQKILLDDTGLAYICQTYERFSHVAMILGKMVLQLSKEPSARLLKHVVRCYLRLSDNPRFSDLTFCWSSFQRK | not soluble
MSLGYQYDTLIYNVRIASMQDNKLPYGELPPHAIAIKDGKIAALLPCDDSLDDVFEQAKSVIDATTLIPQNEGSTPKPPWLLPGFIDCHTHLVYGGNRAEEFEMRLQGASYVDIAQRGGGIKGTVEKTRCSDENTLLHTAIKRAKRLCEEGVTTIEVKSGYGLDLDTEVRMLRVAKSLEQHLPVSIKTTYLGAHALPNEFADDSEGYIDFICNEALPHIASQNLADAVDVFCETIGFSTSQTERVFSCAQQHGLPIKAHVEQLSDSKGAVLAAKYGALSVDHIEYLADSDIPLLAQSGTVAVLLPGAFYYLSEVQKPPVDALRAHNVPMALATDFNPGSSPLASILTAINMGCVLFQLTPEEALRGATAHAASALGLHDRGVIEAGKLADLTLWDIETPAELAYCINGHRPIAVFKEGKHVEGHHHHHH | soluble
MSLNANRPIINLDLDLLRTFVAVADLNTFAAAAAAVCRTQSAVSQQMQRLEQLVGKELFARHGRNKLLTEHGIQLLGYARKILRFNDEACSSLMFSNLQGVLTIGASDESADTILPFLLSRISSVYPKLALDVRVKRNAYMVDMVKSQEVDLVVTTNQPHSLDCLNLRTSPTHWYCAAEYVLQRGEPVPLVLLDDPSPFRDMVLETLNAAGIPWRLAYVASTLPAVRAAVKAGLGVTARPVEMMSPDLRVLGAADGLPPLPDTEYLLCRDPNSQNELAMVIFHAMESYQNEGHHHHHH | soluble
MSLNIFDIAKQNQEKAWQVIKNTNIIQIWEDAGAKINLVGSLRTGLLMKHRDIDFHIYSSPLNLTDSFQAMARLAENPSIKRIECANLLHTAEACIEWHAWYQNEENELWQMDMIHIREGSRYDGYFEKVAQRISEIMTDEIRETILRLKYETPETEKIIGVEYYQAVIRDGVRDYSGFKEWRKQHPVTGVVEWMPEGHHHHHH | soluble
MAKKLSKKGDIQRDHFALISSFPLNQTPETKSEKLQKNLLLHKYYQGHRERLRRRYLKSKGNAIEDYEYLELLLFRTIPRANTKPIAKSLIAHFGSLADVLGADIHRLQEVQGCGPATALDLKIISDVAGRLARAQLFKRDIFSSWDQVLAYCKAVMAHETREQFRVLFLDKKNGLLADEVQQTGTIDHTPVYPREVISRALQLSASGLILVHNHPSGDATPSKADVTMTYRLKDAANALGITVHDHLIIARNNYTSFKELKFI | not soluble
GPGSMRLLSKAAHPDGSMEVRVSVGTAEDLWHLYNFILVGDLVLTKTRRKVPRENALGTLAAEMKMLKLEVEVKHIAFTPDELRIQGVNKKENNFVKTGAHHTLTIHANPPQEVRITKREWDSICEDRLKDACDESGKADTAAVLMSFGEAQVLLVTRSFVHIKAKVEVTISKKHKSDGKARDKSIERFFKQSLDALVTHVDFEKTKLVLLCSPGHVREEFHAYIKEVTQRADHGPLREVYLNLSRFLLVKVSSTTISGLKEALSDPGVAQRMESTKCVDDIRMWEKFQDTMNKDPDRCVYTPQYVYYAAMAGAVGGLMISDDVFRSENPTERRFFLSLVNFVRQSGSPTVNVFSSKHVTGEQLTQLGSVAAVLRFSCPEIDDMEVVPEFLASKEVEEFIRANATARVTV | not soluble
SLESYTVNRGKGVTRYDICQLPSNSPIEDDRAEEIVQVPILQDNNIKTSTDWMFFGVFDGHGGWTTSSKLRDQLIGYVINELGTIYKPVQGEENLRYVPNSATIDQAMKNGFLKLDHELVNKNIEKLLTDGNKAKAAELLMPALSGSCALLSFYDTNSQMLKVAVTGDSRAILGSFKDNHWTVRQLSIDQTGANPSEVARIISEHPNEPKVIRNGRVLGSLEPTRAFGDCRYKLPAVIQERIYKQFFGRPLPNQLKSPPYVTAEPIITTTKINPNEHDFLVMASDGLYEMLTNEEIVGLVVKWMEKADMIKPRKSWFGFGSADSKLPEVKDVTNDKALKKPLNNKLGNSFLLEDNNVSTHLIRNALSNGGSREQTSMLISIPNPVSRRYRDDLTVTVVFFGKDTKGEDENGTLEVNWNATAG | soluble
